In publication PMC8699970:

Key:
[1] = target: AjNLRC4 (native, on coelomocytes) (Apostichopus japonicus (endogenous in coelomocytes)); test: cross-linking; sea cucumbers injected with V. splendidus for 30 min; coelomocytes treated with BS3 (5 mM, 4°C, 1 h); SDS-PAGE and western blotting with anti-AjNLRC4 antibodies
[2] = target: GST-tagged AjNLRC4-IN (intracellular fragment of AjNLRC4 with the NACHT domain) (Apostichopus japonicus); test: MST; Monolith NT; labeled GST-AjNLRC4-IN (10 μM) constant, a range of concentrations of His-β-Actin; 50 mM Tris-HCl pH 7.8, 150 mM NaCl, 10 mM MgCl2, 0.05% Tween-20; 10 min incubation; 20% LED power, 80% MST power

oligomeric state (subunits per complex) [1]	Kd [2] [µM]	Substance
2	–	AjNLRC4 (native, on coelomocytes) (receptor)
–	5.87	His-tagged Ajβ-actin (natural protein)
